In patent publication US20100015155A1 (Eli Lilly, published 2010):

What was measured:
[1] = target: T1, human soluble Abeta (1-40) (human, UniProt P05067 672-711); experiment: KinExA equilibrium, antigen on sepharose beads, soluble Abeta (1-40) titrated, 37 C; 1A1 Fab, not PEGylated
T1 construct: domain: Abeta (1-40); The numbers 1-40 count on the Aβ peptide, not on the APP precursor entry; also called Human Abeta (1-40); human abeta
Procedure: (§1) KinExA analysis is used as an orthogonal approach to measure binding affinity through equilibrium binding analysis due to the slow off-rate of the antigen Fab complex. A KinExA 3000 instrument (Sapidyne Inst. Inc.) is used to measure binding kinetics. Briefly, the antigen is covalently coupled to sepharose beads and the binding of free Fab/Fab-PEG to the beads is detected on the instrument. […] After the incubation, free Fab/Fab-PEG in each equilibrated sample is determined on the KinExA 3000 according to the manufacturer's instructions. Kd values are determined by n-Curve Analysis using KinExA 3000 software.

[2] = target: T1, human soluble Abeta (1-40); experiment: KinExA equilibrium, ratio of KD values
Procedure: as §1

T1 sequence (P05067 672-711 limits assumed): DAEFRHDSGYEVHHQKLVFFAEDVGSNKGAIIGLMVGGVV

B1: 1A1-Fab (humanized antibody Fab fragment, LCVR of SEQ ID NO: 1 and HCVR of SEQ ID NO: 2) (Fab, V domains shown)
VH: EVQLVESGGGLVKPGGSLRLSCAASGYTFSRYSMSWVRQAPGKGLEWVGQINIRGCNTYYPDTVKGRFTISRDDSKNTLYLQMNSLKTEDTAVYYCTTGDFWGQGTLVTVSS
VL: DIVMTQTPLSLSVTPGQPASISCSSSQSLIYSDGNAYLHWYLQKPGQSPQLLIYKVSNRFSGVPDRFSGSGSGTDFTLKISRVEAEDVGVYYCTQSTHSPWTFGGGTKVEIK
notes: Fab without PEG; CH1 and CL are not; The light chain is human kappa, since it is captured or detected with anti-human kappa; also called humanized 1A1-Fab; 1A1 N56C Fab
Question: How did the Kd [1] turn out when B1 was run?
Answer: 0.019 nM

Question: And the “fold affinity against murine 266 Fab” value [2]?
Answer: ~10 fold
